T1: soluble B7H4
T1 chain: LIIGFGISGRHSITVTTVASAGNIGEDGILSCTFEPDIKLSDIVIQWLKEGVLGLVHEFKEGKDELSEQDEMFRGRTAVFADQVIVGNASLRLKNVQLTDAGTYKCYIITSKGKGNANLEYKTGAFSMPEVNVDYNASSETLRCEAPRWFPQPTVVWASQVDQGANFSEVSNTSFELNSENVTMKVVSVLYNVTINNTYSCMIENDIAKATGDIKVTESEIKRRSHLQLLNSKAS

B1: anti-B7-H4 antibody 801 (antibody, V domains shown)
VH: EVQLVESGGGLVQPGGSLRLSCAASGFTFNSYAMHWVRQAPGKGLEWVSAISGNGGSTRYADSVKGRFTISRDNSKNTLYLQMNSLRAEDTAVYYCARDRFRKVHGFDVWGQGTLVTVSS
VL: DIQMTQSPSSLSASVGDRVTITCQASQDISNYLNWYQQKPGKAPKLLIYDASNLETGVPSRFSGSGSGTDFTFTISSLQPEDIATYYCQQDATFPLTFGQGTKVEIK
B2: anti-B7-H4 antibody 817 (antibody, V domains shown)
VH: EVQLVESGGGLVQPGGSLRLSCAASGFTFSSYAMHWVRQAPGKGLEWVSAISGSGGSTRYADSVKGRFTISRDNSKNTLYLQMNSLRAEDTAVYYCARGRWSKWGFDVWGQGTLVTVSS
VL: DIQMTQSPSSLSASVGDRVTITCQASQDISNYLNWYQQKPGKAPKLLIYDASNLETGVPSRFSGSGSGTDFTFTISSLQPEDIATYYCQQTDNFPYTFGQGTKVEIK

Assays:
soluble B7H4 [1] = target: T1, soluble B7H4; experiment: SPR; experiment #2, 25 nM B7-H4
soluble B7H4 [2] = target: T1, soluble B7H4; experiment: SPR; experiment #1, 20 nM B7-H4

Binder | Kd (soluble B7H4 [1]) [nM] | Kd (soluble B7H4 [2]) [nM]
B1 | 0.383 | 0.175
B2 | 0.119 | 0.079

Reference: US11672873 (dated 2023)
